{
  "source": "patent US20200165330A1",
  "about": "(ORDER MADE MEDICAL RESEARCH, published 2020)",
  "key": {"human VEGF121": {"biological_target": "T1, human VEGF121 (human, UniProt P15692 207-321)", "T1 sequence": "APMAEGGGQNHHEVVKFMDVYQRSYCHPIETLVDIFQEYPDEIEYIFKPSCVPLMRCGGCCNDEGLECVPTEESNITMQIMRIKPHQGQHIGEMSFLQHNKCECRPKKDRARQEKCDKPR", "experiment": "ELISA, human VEGF121 coated at 20 ng/well, antibody serially diluted from 1 ug/ml, peroxidase anti-human Ig, absorbance 450 nm", "description": "(§1) Next, after 3 times of washing with 300 μL of 0.02% Tween 20-containing PBS (−) (hereafter, denoted as “PBS-T”), 300 μL of 3% skim milk-containing PBS (−) was dispensed to each well, followed by blocking at 37° C. for 1 hour. […] After washing similarly, TMB Single Solution was added for color development at room temperature. After the reaction was stopped with 1 N sulfuric acid, absorbance at 450 nm was measured using a plate reader (Molecular Devices)."}, "[1]": {"biological_target": "T2, Human recombinant VEGF165 (human, UniProt P15692 181-395)", "T2 construct": "also called rhVEGF165; rhVEGF", "experiment": "ELISA, human VEGF165 coated at 20 ng/well, antibody serially diluted from 1 ug/ml, peroxidase anti-human Ig, absorbance 450 nm", "description": "as §1"}, "[2]": {"biological_target": "T2, Human recombinant VEGF165", "experiment": "ELISA, human VEGF165 coated at 20 ng/well, antibody serially diluted from 1 ug/ml, peroxidase anti-canine Ig, absorbance 450 nm", "description": "(§2) Next, after 3 times of washing with 300 μL of 0.02% Tween 20-containing PBS (−) (hereafter, denoted as “PBS-T”), 300 μL of 3% skim milk-containing PBS (−) was dispensed into each well, followed by blocking at 37° C. for 1 hour. […] After washing similarly, TMB Single Solution was added for color development at room temperature. After the reaction was stopped with 1 N sulfuric acid, absorbance at 450 nm was measured using a plate reader (Molecular Devices)."}, "canine VEGFA (VEGF164)": {"biological_target": "T3, canine VEGFA (VEGF164) (canine, UniProt Q9MYV3-3 27-190)", "T3 construct": "also called canine VEGF164", "T3 sequence (looked up)": "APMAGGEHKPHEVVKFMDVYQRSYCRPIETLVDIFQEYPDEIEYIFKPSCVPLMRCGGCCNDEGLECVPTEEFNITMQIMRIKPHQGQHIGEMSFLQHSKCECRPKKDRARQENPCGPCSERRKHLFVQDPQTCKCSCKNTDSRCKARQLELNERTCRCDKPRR", "experiment": "ELISA, canine VEGFA coated at 20 ng/well, antibody serially diluted from 1 ug/ml, peroxidase anti-canine Ig, absorbance 450 nm", "description": "as §2"}, "[3]": {"biological_target": "T2, Human recombinant VEGF165", "experiment": "measured KD for rhVEGF set against a cited KD of Avastin; the excerpt does not show the method"}, "[4]": {"biological_target": "T2, Human recombinant VEGF165", "experiment": "SPR, BIAcore-3000, rhVEGF immobilized on the chip, antibody injected"}},
  "data": [
    {"binder": "human IgG1 chimeric KLHb1501 antibody (antibody, V domains shown, also called KLHb1501HC; KLHb1501HC antibody) VH: DVQLQESGPGLVKPSQSLSLTCTVTGYSITSDYAWTWIRQFPGDKLEWMGYISYSGSTRYNPSLKSRISITRDTSKNQFFLHLNSVTTEDTATYFCARGGDYYGSRPWFAYWGQGTLVTVSA VL: QAVVTQESALTTSPGETVTLTCRSSTGAVTISNYANWVQEKPDHLFTGLIGGTNNRAPDVPARFSGSLIGDKAALTITGAQTEDEAIYFCALWYSNHLVFGEGTKLTVL", "values": [
      {"measurement": "EC50 (read off the curve)", "setting": "human VEGF121", "value": "~0.04", "unit": "mg/L"},
      {"measurement": "EC50 (read off the curve)", "setting": "[1]", "value": "~0.04", "unit": "mg/L"}
    ]},
    {"binder": "canine-IgGB chimeric KLHb1501 antibody (antibody, V domains shown, also called KLHb1501CC; KLHb1501CC antibody) VH: DVQLQESGPGLVKPSQSLSLTCTVTGYSITSDYAWTWIRQFPGDKLEWMGYISYSGSTRYNPSLKSRISITRDTSKNQFFLHLNSVTTEDTATYFCARGGDYYGSRPWFAYWGQGTLVTVSA VL: QAVVTQESALTTSPGETVTLTCRSSTGAVTISNYANWVQEKPDHLFTGLIGGTNNRAPDVPARFSGSLIGDKAALTITGAQTEDEAIYFCALWYSNHLVFGEGTKLTVLQ", "values": [
      {"measurement": "EC50 (read off the curve)", "setting": "[2]", "value": "~0.03", "unit": "mg/L"},
      {"measurement": "EC50 (read off the curve)", "setting": "canine VEGFA (VEGF164)", "value": "~0.03", "unit": "mg/L"}
    ]},
    {"binder": "KLHb1501 (antibody, V domains shown, also called KLHb1501 antibody; KLH1501) VH: DVQLQESGPGLVKPSQSLSLTCTVTGYSITSDYAWTWIRQFPGDKLEWMGYISYSGSTRYNPSLKSRISITRDTSKNQFFLHLNSVTTEDTATYFCARGGDYYGSRPWFAYWGQGTLVTVSA VL: QAVVTQESALTTSPGETVTLTCRSSTGAVTISNYANWVQEKPDHLFTGLIGGTNNRAPDVPARFSGSLIGDKAALTITGAQTEDEAIYFCALWYSNHLVFGEGTKLTVL", "values": [
      {"measurement": "ratio of dissociation constant to that of Avastin (bevacizumab)", "setting": "[3]", "value": "≤ 0.001 ratio (KD of the antibody / KD of Avastin, cited as 4.9 nmol/L)"},
      {"measurement": "Kd", "setting": "[4]", "value": 0.6, "unit": "pM"}
    ]}
  ]
}
